Results taken from patent US20060183195A1 (published 2006).

B1: 6G5.1 (antibody, human IgG1, V domains shown)
VH: QVQLQQWGAGLLKPSETLSLTCAVYGGSFSGYYWSWIRQPPGKGLEWIGEINHSGSTNYNPSLKSRVTISVDTSKNQFSLKLSSVTAADTAVYYCARVINWFDPWGQGTLVTVSS
VL: DIQMTQSPSSVSASVGDRVTITCRASQDISSWLAWYQHKPGKAPKLLIYAASSLQSGVPSRFSGSGSGTDFTLTISSLQPEDFATYYCQQANSFPYTFGQGTKLEIKR
notes: Human IgG1 kappa from a hybridoma of an HC2/KCo5 transgenic mouse; VH4-34/JH5; VkL19/Jk2
B2: 4D1.4 (antibody, V domains shown)
VH: EVQLVQSGAEVKKPGESLKISCKGSGYSFTGYWIGWVRQMPGKGLEWMGIIYPGDSDTTYSPSFQGQVTISADKSISTAYLQWSSLKASDTAMYYCARDQLGLFDYWGQGTLVTVSS
VL: DIQMTQSPSSLSASVGDRVTITCRASQGISSWLAWYQQKPEKAPKSLIYSASSLQSGVPSRFSGSGSGTDFTLTISSLQPEDFATYYCQQYDSYPYTFGQGTKLEIKR
notes: Human IgG1 kappa from a hybridoma of an HC2/KCo5 transgenic mouse
B3: 10C5.6 (antibody, human IgG1, V domains shown)
VH: QVQLQQWGAGLLKPSETLSLTCAVYGGSFSGYYWSWIRQPPGKGLEWIGEINHSGSTNYNPSLKSRVTISVDTSKNQFSLKLSSVTAADTAVYYCARVINWFDPWGQGTLVTVSS
VL: DIQMTQSPSSVSASVGDRVTITCRASQDISSWLAWYQHKPGKAPKLLIYAASSLQSGVPSRFSGSGSGTDFTLTISSLQPEDFATYYCQQANSFPYTFGQGTKLEIK
notes: as for B2
B4: 2C5.1 (antibody, V domains shown)
VH: EVQLVQSGAEVKKPGESLKISCKGSGYRFTSYWIGWVRQMPGKGLEWMGIIYPGDSDTRYSPSFQGQVTISADKSISTAYLQWSSLKASDTAMYYCARAPTGDWFDPWGQGTLVTVSS
VL: DIQMTQSPSSLSASVGDRVTITCRASQGISSWLAWYQQKPEKAPKSLIYAASSLQSGVPSRFSGSGSGTDFTLTISSLQPEDFATYYCQQYNSYPPTFGGGTKVEIKR
B5: 4E4.2 (antibody, V domains shown)
VH: EVQLVQSGAEVKKPGESLKISCKGSGYRFTSYWIGWVRQMPGKGLEWMGIIYPGDSDTRYSPSFQGQVTISADKSISTAYLQWSSLKASDTAMYYCARAPTGDWFDPWGQGTLVTVSS
VL: DIQMTQSPSSLSASVGDRVTITCRASQGISSWLAWYQQKPDKAPKSLIYAASSLQSGVPSKFSGSGSGTDFTLTISSLQPEDFATYYCQQYNSYPPTFGGGTKVEIKR

Columns and labels:
[1] = biological target: T1, native human CD4 on the cell surface (human, UniProt P01730 26-458); assay: flow cytometry, serial dilutions on SupT1 cells
T1 construct: whole, on cells; also called native CD4; CD4 on SupT1 cells
Procedure: (§1) The avidity and affinity determinations described above were performed with recombinant CD4 (rCD4). To determine the avidity of the human monoclonal antibodies for native CD4 (nCD4). […] Specifically, serial dilutions of antibody were incubated with SupT1 cells for 6 hr on ice, washed and detected any bound antibody with FITC-goat anti-human Fey.
(§2) *Human monoclonal antibodies were incubated in serial dilutions with SupT1 cells for 6 hrs, washed twice and incubated with FITC-conjugated goat anti-human Fey antisera, washed and fixed. The Ka was calculated from the concentration of antibody yielding one-half of the maximum fluorescence as determined from a four-parameter fit.

[2] = biological target: T2, recombinant soluble human CD4 (human, UniProt P01730 26-396, limits assumed); assay: BIAcore, rCD4 coupled to chip, mAb flowed over
T2 construct: Soluble recombinant antigen used in ELISA and on or over the sensor chip; also called rCD4; sCD4
Procedure: (§3) The rate and equilibrium constants presented in Table 19 were determined with a BIAcore, using antigen (rCD4) coupled to the sensor chip and flowing mAb over. These constants were derived from at least three independent experiments using purified mAbs.

[3] = biological target: T2, recombinant soluble human CD4; assay: SPR, sCD4 amine-coupled to sensor chip, antibody flowed over
[4] = biological target: T2, recombinant soluble human CD4; assay: BIAcore, mAb captured on anti-human IgG Fc chip, rCD4 flowed over
Procedure: The rate and equilibrium constants presented in Table 18 were determined with a BIAcore (Pharmacia Biosensor) using goat anti-human IgG (Fc-specific) coupled to the sensor chip and flowing a saturating concentration of mAb over followed by various concentrations of antigen (rCD4). These constants were derived from three experiments using purified mAbs.

[5] = biological target: T1, native human CD4 on the cell surface; assay: ratio of Ka on rCD4 (BIAcore) to Ka on nCD4 (flow cytometry, SupT1)
Procedure: as §3, §1, §2

[6] = biological target: T2, recombinant soluble human CD4; assay: rCD4 column of Table 21 (same values as Table 19: BIAcore, rCD4 on chip)
Procedure: as §3

[7] = biological target: T1, native human CD4 on the cell surface; assay: flow cytometry, serial dilutions on SupT1 cells, half-maximal fluorescence
Procedure: as §1, §2

[8] = biological target: T3, chimpanzee CD4 on peripheral blood lymphocytes (chimpanzee, UniProt P16004 26-458); assay: two-colour flow cytometry on peripheral blood lymphocytes
T3 construct: whole, on cells; also called chimpanzee CD4 cells
T3 sequence (P16004 26-458): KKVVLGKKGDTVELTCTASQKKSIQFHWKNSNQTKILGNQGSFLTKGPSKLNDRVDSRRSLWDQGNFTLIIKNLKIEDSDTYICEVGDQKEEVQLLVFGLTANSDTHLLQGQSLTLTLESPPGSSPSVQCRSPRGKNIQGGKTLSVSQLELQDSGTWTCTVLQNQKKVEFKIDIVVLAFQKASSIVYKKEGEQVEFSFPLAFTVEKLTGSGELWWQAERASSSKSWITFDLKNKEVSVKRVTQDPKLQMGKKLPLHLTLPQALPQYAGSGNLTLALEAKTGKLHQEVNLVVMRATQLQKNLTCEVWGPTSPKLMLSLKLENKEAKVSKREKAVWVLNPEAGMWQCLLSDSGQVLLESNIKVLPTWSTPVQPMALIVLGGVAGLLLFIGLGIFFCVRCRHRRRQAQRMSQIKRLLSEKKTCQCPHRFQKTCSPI
Procedure: (§4) It is further desirable for some purposes that the animal be a non-human primate that expresses CD4 comprising a cross-reactive epitope with human CD4 such that it is recognized by the monoclonal antibody. […] Peripheral blood lymphocytes were isolated from whole blood of chimpanzee, rhesus, and cynomolgus monkeys. […] The stained cells were then analyzed by flow cytometry to determine if each of the human monoclonal antibodies bound to endogenous CD4 on the surface of lymphocytes from each of these three non-human primates.

[9] = biological target: T4, rhesus monkey CD4 on peripheral blood lymphocytes (rhesus monkey, UniProt P16003 26-458); assay: as above
T4 construct: whole, on cells; also called rhesus CD4 cells
T4 sequence (P16003 26-458): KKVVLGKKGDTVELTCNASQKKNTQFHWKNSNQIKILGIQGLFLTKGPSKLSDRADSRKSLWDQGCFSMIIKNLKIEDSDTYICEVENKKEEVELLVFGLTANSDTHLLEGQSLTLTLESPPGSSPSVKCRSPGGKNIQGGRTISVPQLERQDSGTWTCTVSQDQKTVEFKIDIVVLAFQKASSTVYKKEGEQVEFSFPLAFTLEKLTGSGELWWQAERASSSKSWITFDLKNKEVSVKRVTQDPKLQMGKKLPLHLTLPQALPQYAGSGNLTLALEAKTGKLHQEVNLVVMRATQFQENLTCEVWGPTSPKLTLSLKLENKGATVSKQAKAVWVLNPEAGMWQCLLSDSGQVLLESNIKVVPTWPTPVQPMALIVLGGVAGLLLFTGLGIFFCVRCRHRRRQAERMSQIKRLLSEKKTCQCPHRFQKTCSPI
Procedure: as §4

[10] = biological target: T5, cynomolgus monkey CD4 on peripheral blood lymphocytes (cynomolgus monkey, UniProt P79185 26-458); assay: as above
T5 construct: whole, on cells; also called cynomolgus CD4 cells
T5 sequence (P79185 26-458): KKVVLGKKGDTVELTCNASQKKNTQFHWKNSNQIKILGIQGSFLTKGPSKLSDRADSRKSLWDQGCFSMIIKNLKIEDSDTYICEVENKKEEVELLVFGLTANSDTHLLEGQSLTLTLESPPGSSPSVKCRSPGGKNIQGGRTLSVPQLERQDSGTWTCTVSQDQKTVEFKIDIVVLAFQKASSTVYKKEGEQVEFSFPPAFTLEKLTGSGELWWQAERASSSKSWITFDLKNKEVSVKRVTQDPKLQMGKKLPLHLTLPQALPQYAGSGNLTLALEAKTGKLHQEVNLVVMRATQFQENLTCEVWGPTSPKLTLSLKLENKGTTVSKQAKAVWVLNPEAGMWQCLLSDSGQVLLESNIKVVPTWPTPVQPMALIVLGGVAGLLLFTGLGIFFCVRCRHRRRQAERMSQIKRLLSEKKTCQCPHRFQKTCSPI
Procedure: as §4

[11] = biological target: T2, recombinant soluble human CD4; assay: association and dissociation rates of human CD4 antigen for the antibody; method not named

Row | Binder | Ka [1] [M⁻¹] | Ka [2] [M⁻¹] | koff [2] [s⁻¹] | kon [2] [M⁻¹ s⁻¹] | Ka [3] [M⁻¹] | koff [3] [s⁻¹] | kon [3] [M⁻¹ s⁻¹] | Ka [4] [M⁻¹] | koff [4] [s⁻¹] | kon [4] [M⁻¹ s⁻¹] | Ratio of Ka (rCD4/nCD4) [5] | Ka [6] [M⁻¹] | Ka [7] [M⁻¹] | binding result [8] | binding result [9] | binding result [10] | Ka [11] [M⁻¹]
1 | B1 | > 1e+09 | 1.1e+10 | 1e-05 | 110000 | 1.1e+10 | 1e-05 | 110000 | 1.4e+08 | 0.00069 | 93000 | 5.9 | 1.1e+10 | 1e+09 |  |  |  | 
2 | B2 | > 1e+09 | 2.3e+09 | 4.2e-05 | 98000 | 2.3e+09 | 4.2e-05 | 98000 | 7.3e+07 | 0.0034 | 250000 | 1.2 | 2.3e+09 | 2e+09 |  |  |  | 
3 | B3 | > 1e+09 | 4.5e+09 | 1.6e-05 | 74000 | 4.5e+10 | 1.6e-05 | 74000 | 1.3e+08 | 0.00071 | 94000 | 2.5 | 4.5e+09 | 1e+09 | binds | binds | binds | 
4 | B4 |  |  |  |  |  |  |  |  |  |  |  |  |  |  |  |  | ~8e+07
5 | B5 |  |  |  |  |  |  |  |  |  |  |  |  |  |  |  |  | ~9e+07
